Measured values published in patent US8198235B2, “Use of GILZ protein expressed in dendritic cells to modulate an antigen-specific immune response” (Assistance Publique-Hopitaux de Paris, priority 2004, dated 2012).

Tests used:
Format in all cases: cell-based, human
regulatory T lymphocytes = assay: Induction of regulatory T cells: sensitized CD4+ T cells added to autologous PBMCs stimulated with PPD or CMV; conditions: CD4+ T sensitized with PPD-loaded dendritic cells treated with dexamethasone and control siRNA
Excerpt: To evaluate the induction of the regulatory T cells (Tregs), immature monocyte-derived dendritic cells treated on the fifth day of culture (D5) with a controlled siRNA or an siRNA targeting GILZ (siRNA GILZ) alone, or else with either dexamethasone (DEX) or IL-10, or not treated, and then treated with the PPD on D7, were cocultured with CD4^+ T cells, as described in example 2. The CD4^+ T cells were purified on the seventh day of DC-CD4^+ T coculture and added in increasing amounts to 10^5 autologous PBMCs stimulated with PPD (1 μg/ml, STATENS SERUM INSTITUTE) or the cytomegalovirus (CMV, 25 μg/ml, BEHRING).
The hypothesis that the GILZ-expressing dendritic cells inhibit the CD4^+ T lymphocyte response by inducing regulatory T lymphocytes during antigen presentation was verified experimentally. Dendritic cells were treated with a control or anti-GILZ siRNA, alone or with dexamethasone, and with PPD (first culture). After washing, the dendritic cells were used to stimulate autologous CD4^+ T lymphocytes. The CD4^+ T lymphocytes of this second culture (sensitized CD4^+ T lymphocytes) were purified and added in increasing amounts to autologous PBMCs stimulated either with PPD or with CMV (third culture). The CD4^+ T lymphocytes sensitized with nontreated dendritic cells or dendritic cells treated with a control siRNA have no effect on the proliferative response of the third culture. […]

GILZ gene = assay: Quantitative RT-PCR analysis of GILZ gene expression in monocyte derived dendritic cells; conditions: added on fifth day of culture; Dex 10^-7 M, IL-10 100 ng/ml, TGFβ 20 ng/ml; detected before and after CD40L
Description: (§1) Immature monocyte derived dendritic cells (iMDDCs) were prepared as described in Palucka et al., J. Immunol., 1998, 160, 4587-4595, apart from minor modifications. Briefly, human monocytes were isolated from the peripheral blood mononucleocell fraction by negative selection, according to the manufacturer's (DYNAL) recommendations. The monocytes (1 to 2×10^5 cells/ml) were cultured for 7 days in the presence of GM-CSF and IL-4 (100 ng/ml and 50 ng/ml, respectively, SCHERING-PLOUGH). The maturation of the dendritic cells (MDDCs) was induced in the presence of CD40L (250 ng/ml; IMMUNEX). Dexamethasone (DEX, SIGMA), recombinant human IL-10 (rhIL-10, DNAX) and TGFβ (R&D) were used at the following respective concentrations: 10^−7 M, 100 ng/ml and 20 ng/ml. For the in vivo experiments, the antigen-presenting cells (APCs) were purified using the monocyte negative selection kit according to the manufacturer's (DYNAL) recommendations.
The expression of the human GILZ gene was analyzed by real time RT-PCR according to the manufacturer's recommendations (Lightcycler™, ROCHE), using the pair of primers described in Berrebi et al. BLOOD, 2003, 101, 729-738 and the human β-actin gene as internal control.

CCL3, CCL5 and CXCL8 = assay: Chemokine ELISA in dendritic cell culture supernatant after CD40L; conditions: dendritic cells treated before addition of CD40L
Description: as §1
The production of chemokines in the culture supernatant of the dendritic cells was analyzed using ELISA kits (R&D SYSTEMS) according to the manufacturer's instructions.

[1] = test system: monocyte derived dendritic cells; assay: Dendritic cell phenotype by flow cytometry (CD80, CD83, CD86, B7-H1); conditions: treated D5, CD40L D7, phenotype D9
Description: as §1
The dendritic cell phenotype was analyzed by four-color flow cytometry, using the following monoclonal antibodies: phycoerythrin-coupled anti-CD83 (CD83-PE, COULTER); phycoerythrin-coupled anti-CD80 (CD80-PE, BD BIOSCIENCES); anti-B7-H1 (CLINISCIENCES) and phycoerythrin-coupled anti-CD86 (CD86-PE, BD PHARMINGEN). The anti-B7-H1 antibody is detected using a phycoerythrin-coupled secondary antibody (BD PHARMINGEN). […]

Row | Molecule | anti-CMV response of the third culture (regulatory T lymphocytes) | expression of GILZ (RT-PCR) (GILZ gene) | CD40L-induced production of the chemokines CCL3, CCL5 and CXCL8 (CCL3, CCL5 and CXCL8) | expression of B7-H1 [1] | expression of CD80, CD83 and CD86 [1]
1 | C[C@@H]1C[C@H]2[C@@H]3CCC4=CC(=O)C=C[C@]4(C)[C@@]3(F)[C@@H](O)C[C@]2(C)[C@@]1(O)C(=O)CO [dexamethasone] | no effect | – | – | – | –
2 | TGFβ | – | stimulates the expression of GILZ | – | – | –
3 | IL-10: recombinant human IL-10 (rhIL-10, DNAX) (protein, UniProt P22301 19-178, looked up) Interleukin-10: SPGQGTQSENSCTHFPGNLPNMLRDLRDAFSRVKTFFQMKDQLDNLLLKESLLEDFKGYLGCQALSEMIQFYLEEVMPQAENQDPDIKAHVNSLGENLKTLRLRLRRCHRFLPCENKSKAVEQVKNAFNKLQEKGIYKAMSEFDIFINYIEAYMTMKIRN | – | stimulates the expression of GILZ | partially inhibited | stimulate | inhibit
